Here are results for one substance from article PMC2828913.

This assay addresses Collagen matrix (Purecol) (UniProt P02453). Kind of assay: retention in a polymerised collagen gel.
Chain of UniProt P02453 (P02453 162-1217, chain 1 of 2): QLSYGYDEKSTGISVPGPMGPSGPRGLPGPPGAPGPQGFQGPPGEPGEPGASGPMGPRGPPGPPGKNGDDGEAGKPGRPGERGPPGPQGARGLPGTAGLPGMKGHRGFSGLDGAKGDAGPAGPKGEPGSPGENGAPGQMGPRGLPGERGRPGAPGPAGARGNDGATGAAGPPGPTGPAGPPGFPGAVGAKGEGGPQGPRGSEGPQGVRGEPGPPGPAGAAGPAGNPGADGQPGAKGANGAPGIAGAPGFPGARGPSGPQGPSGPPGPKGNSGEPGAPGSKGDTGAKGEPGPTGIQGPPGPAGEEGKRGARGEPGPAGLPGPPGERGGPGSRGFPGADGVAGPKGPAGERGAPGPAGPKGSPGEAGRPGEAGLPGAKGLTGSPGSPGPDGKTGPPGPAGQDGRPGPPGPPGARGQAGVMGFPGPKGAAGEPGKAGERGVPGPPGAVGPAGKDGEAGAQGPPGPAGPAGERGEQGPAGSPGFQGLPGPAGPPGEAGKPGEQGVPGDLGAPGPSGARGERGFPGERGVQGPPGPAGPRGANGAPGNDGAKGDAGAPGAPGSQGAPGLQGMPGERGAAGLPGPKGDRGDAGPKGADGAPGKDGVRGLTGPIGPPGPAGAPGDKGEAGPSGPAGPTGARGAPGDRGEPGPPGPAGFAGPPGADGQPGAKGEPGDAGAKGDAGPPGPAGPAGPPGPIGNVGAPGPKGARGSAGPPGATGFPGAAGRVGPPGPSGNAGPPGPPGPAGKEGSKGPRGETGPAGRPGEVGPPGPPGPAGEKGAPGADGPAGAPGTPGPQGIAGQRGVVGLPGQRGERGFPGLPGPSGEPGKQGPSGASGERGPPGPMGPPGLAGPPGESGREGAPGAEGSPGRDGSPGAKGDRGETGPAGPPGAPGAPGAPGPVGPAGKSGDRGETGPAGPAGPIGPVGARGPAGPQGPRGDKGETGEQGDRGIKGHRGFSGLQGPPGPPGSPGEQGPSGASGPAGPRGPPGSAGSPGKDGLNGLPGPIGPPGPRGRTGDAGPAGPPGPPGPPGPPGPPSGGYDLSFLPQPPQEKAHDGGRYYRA
Chain of UniProt P02453 (P02465 80-1117, chain 2 of 2, further chain): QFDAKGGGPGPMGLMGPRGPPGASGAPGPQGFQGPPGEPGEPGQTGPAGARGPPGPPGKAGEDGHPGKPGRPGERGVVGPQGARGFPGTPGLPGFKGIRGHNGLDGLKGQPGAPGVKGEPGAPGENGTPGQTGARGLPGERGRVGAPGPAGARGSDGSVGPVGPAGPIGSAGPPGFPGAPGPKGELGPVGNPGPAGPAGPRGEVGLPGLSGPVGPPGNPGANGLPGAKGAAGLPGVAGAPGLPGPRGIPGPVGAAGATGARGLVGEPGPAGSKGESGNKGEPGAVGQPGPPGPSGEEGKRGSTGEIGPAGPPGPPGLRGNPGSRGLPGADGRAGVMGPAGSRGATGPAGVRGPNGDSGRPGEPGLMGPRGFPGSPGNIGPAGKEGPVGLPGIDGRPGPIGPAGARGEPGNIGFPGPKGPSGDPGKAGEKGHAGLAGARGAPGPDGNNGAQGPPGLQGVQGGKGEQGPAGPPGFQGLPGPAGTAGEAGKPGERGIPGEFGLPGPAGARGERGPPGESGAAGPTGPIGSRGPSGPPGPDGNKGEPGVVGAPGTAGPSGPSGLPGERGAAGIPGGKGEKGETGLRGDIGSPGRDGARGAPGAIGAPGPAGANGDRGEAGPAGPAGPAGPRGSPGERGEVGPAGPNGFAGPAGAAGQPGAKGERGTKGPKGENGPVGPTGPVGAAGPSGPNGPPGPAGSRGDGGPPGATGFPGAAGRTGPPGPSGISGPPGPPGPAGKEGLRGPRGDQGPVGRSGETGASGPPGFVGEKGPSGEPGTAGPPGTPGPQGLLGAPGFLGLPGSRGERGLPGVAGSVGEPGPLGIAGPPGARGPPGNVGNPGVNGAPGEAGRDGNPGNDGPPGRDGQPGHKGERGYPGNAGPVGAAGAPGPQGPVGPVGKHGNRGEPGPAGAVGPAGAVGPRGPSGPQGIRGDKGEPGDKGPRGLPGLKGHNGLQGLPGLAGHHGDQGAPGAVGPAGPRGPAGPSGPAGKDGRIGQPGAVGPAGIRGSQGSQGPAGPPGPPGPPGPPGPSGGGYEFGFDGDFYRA

Turning to Human VEGF165 (ligand), the percent retained in the collagen gel after washes was more than 80%.
